PMC8785239

Target: fluorescein-labeled sulfopeptide
Test: fluorescence polarisation

Substance | fold improvement in affinity over SH2-wt [fold] | fold improvement in affinity for sulfopeptide over phosphopeptide [fold]
SH2-E38P (domain or fragment) | 17 | 
SH2-S37H (domain or fragment) |  | 1.4
SH2-S37H/E38P (domain or fragment) |  | 6.6
SH2-T39F (domain or fragment) | > 35 | 
